Measurements published in US20150203575A1 (Genentech, published 2015).

Key:
Experiment in all cases: cDNA expression library screen with PILRα-AP supernatant on COS7 transfectants; positive clones further analysed by FACS
PTPRN expressed on cells = target: T1, PTPRN expressed on cells (human, UniProt Q16849 35-979)
T1 construct: Clone of the Origene human cDNA library; also called Protein tyrosine phosphatase receptor-type N
T1 sequence: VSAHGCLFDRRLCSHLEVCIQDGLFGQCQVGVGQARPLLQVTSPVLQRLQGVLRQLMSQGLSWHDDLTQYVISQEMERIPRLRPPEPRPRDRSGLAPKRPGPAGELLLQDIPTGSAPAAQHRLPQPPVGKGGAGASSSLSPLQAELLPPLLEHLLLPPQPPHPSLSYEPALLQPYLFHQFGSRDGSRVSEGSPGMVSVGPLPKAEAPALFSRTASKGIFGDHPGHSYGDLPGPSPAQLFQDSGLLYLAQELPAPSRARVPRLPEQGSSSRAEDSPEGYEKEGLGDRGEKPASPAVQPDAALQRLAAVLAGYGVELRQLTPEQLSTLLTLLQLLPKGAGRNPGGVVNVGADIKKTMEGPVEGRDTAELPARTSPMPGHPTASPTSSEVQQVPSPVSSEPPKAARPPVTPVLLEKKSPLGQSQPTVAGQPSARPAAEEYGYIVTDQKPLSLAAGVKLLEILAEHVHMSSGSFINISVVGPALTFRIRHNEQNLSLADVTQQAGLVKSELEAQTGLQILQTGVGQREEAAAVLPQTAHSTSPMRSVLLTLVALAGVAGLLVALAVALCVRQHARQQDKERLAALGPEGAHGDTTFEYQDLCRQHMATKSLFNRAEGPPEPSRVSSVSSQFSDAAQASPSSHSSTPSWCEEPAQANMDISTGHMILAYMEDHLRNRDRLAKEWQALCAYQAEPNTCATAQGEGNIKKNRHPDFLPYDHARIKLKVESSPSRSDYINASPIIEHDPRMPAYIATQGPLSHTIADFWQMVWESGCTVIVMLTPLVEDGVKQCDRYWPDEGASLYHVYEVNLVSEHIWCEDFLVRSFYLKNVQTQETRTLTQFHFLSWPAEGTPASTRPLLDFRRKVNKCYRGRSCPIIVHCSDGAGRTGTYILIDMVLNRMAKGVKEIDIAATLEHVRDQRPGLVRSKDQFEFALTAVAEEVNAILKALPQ
Protocol: (§1) COS7 cells were plated in a 24-well format and transfected with 10 ul of Origene library DNA (Origene, human DNA library containing 20 k genes) per well with Fugene 6 Reagent. Two days later, cells were incubated with human or mouse PILRα-Ap supernatants for 45 min at room temperature (RT). Then cells were fixed with 4% PFA for 15 min at RT. After removing fixation buffer, cells were blocked with 100 mM Glycine in HBS (20 mM Hepes, PH7.2, 150 mM NaCl) for 15 min at RT. Cells were then rinsed and incubated in HBS for 90 min at 65° C. HBS was removed and Western Blue Substrate (Promega) was added and color was developed for 30 min to 1 hr.

BR3 expressed on cells = target: T2, BR3 expressed on cells (human, UniProt Q96RJ3 1-184)
T2 construct: Clone of the Origene human cDNA library
T2 sequence: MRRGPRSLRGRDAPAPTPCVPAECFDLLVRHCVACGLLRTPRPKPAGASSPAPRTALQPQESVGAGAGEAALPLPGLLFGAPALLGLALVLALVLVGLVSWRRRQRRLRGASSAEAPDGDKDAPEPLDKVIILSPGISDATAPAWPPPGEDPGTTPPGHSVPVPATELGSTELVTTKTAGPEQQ
Protocol: as §1

APLP1 expressed on cells = target: T3, APLP1 expressed on cells (human, UniProt P51693 39-650)
T3 construct: Clone of the Origene human cDNA library; also called Amyloid beta precursor like protein 1
T3 sequence: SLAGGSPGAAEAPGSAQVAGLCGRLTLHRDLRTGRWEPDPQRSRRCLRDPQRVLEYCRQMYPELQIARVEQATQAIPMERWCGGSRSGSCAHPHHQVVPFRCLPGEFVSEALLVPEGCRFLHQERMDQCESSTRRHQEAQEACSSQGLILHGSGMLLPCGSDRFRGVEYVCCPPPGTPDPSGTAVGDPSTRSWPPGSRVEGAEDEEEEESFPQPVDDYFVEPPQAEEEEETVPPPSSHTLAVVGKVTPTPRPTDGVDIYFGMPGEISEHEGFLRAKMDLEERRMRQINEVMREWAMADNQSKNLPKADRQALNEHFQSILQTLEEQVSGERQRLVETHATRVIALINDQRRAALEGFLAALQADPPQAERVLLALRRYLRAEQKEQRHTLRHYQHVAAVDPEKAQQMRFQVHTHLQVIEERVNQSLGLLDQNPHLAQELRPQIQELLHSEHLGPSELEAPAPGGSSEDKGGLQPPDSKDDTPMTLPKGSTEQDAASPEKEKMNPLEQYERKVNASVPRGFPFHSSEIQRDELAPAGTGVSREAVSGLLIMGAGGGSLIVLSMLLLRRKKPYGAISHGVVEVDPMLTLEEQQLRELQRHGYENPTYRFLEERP
Protocol: as §1

[1] = target: T4, FceRII expressed on cells (human, UniProt P06734 1-321)
T4 construct: Clone of the Origene human cDNA library; also called FcRII
T4 sequence: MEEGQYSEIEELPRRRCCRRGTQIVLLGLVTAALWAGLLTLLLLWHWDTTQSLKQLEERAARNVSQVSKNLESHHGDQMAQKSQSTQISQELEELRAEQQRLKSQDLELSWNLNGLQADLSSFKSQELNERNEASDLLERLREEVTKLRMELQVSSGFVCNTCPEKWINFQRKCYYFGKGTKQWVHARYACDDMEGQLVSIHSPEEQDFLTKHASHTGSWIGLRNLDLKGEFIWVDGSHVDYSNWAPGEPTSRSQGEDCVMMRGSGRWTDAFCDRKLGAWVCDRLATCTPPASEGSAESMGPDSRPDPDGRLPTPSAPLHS
Protocol: as §1

Measured: binding result

B1: hPILRα-AP (other)
chain: QPSGSTGSGPSYLYGVTQPKHLSASMGGSVEIPFSFYYPWELATAPDVRISWRRGHFHRQSFYSTRPPSIHKDYVNRLFLNWTEGQKSGFLRISNLQKQDQSVYFCRVELDTRSSGRQQWQSIEGTKLSITQAVTTTTQRPSSMTTTWRLSSTTTTTGLRVTQGKRRSDSWHISLET
notes: Used as culture supernatant; also called human PILRα-AP; Alkaline phosphatase (AP)-tagged PILRα construct; not shown: C-terminal alkaline phosphatase (AP) tag
binds: all assays above
